How the values were obtained:
[1] = tested on: Fat pad (fatty acid metabolism genes); settings: Up-regulated, 2.5 mmol/kg daily, 7 days
Procedure: (2) DNA microarray analysis: The procedure of DNA microarray analysis was conducted according to the reference (Cheng, 2007). Briefly, 5 μg of total RNA was amplified by in vitro transcription using MessageAmp™ aRNA kit (Ambion). In the following, the fluorescence dye, Cy5, was chemically labeled on the amplified RNA (aRNA). After the labeling, the fluorescence labeled aRNA was hybridized with Whole Genome OneArray™ in hybridization buffer (Phalanx Biotech Group, Taiwan) on cover slide. Following the hybridization reaction at 50° C. over-night, the non-specific binding on the chip was washed by three washing steps. The washed chip was dried by centrifugation and was scanned by Axon 4000 scanner (Molecular Devices, Sunnyvale, Calif., USA) to measure the fluorescence signals. The fluorescence intensity of Cy5 on each spots was further analyzed by genepix 4.1 (Molecular Devices). First, the signals of each spot were adjusted by deducting the intensity of background. In the next step, the spots including the probes of internal controls or the spots with the signal-to-noise ratios less than 0 would be removed. The qualified spots were normalized by limma package which is belonged to R console (Smyth, 2005).

[2] = tested on: TNF-α; assay: Immunohistochemistry staining of organs, LPS-induced mice; format: in vivo; settings: group 3 vs group 2 (LPS)
Procedure: (§1) Immunohistochemistry (IHC) would be known by an ordinary person skilled in the art. The organs were collected from the mice of the each group for paraffin embedding and histology section. The parafilm-embedded organs were cut into […] sections, deparaffinized in xylene and then rehydrated in graded alcohol. Endogenous peroxidase was quenched with 3% hydrogen peroxide in methanol for 15 mins and the nonspecific binding was blocked with 1% bovine serum albumin at room temperature for 1 hour. The blocked sections were further incubated with 50-folds diluted mouse monoclonal antibodies against p56, TNF-α or IL-1β proteins at 4° C. for 16-18 hours, respectively and then incubated with biotinylated secondary antibodies (Zymed Laboratories, South San Francisco, Calif.) that against the Fc fragment of the co-responding first antibody at room temperature for 20 minutes. Finally, the slides were incubated with avidin-biotin complex reagent and stained with 3,3′-diaminobenzidine according to manufacturer's protocol (Histostain®-Plus Kit, Zymed Laboratories, South San Francisco, Calif.).

[3] = tested on: IL-1β; assay: as above; format: in vivo; settings: group 3 vs group 2 (LPS)
Procedure: as §1

[4] = tested on: Kidney (Diabetes; Nephrosis genes); settings: Down-regulated, 2.5 mmol/kg daily, 7 days
Procedure: (§2) The wild-type FVB mice were divided into the control group and the experimental group, wherein the mice in the experimental group were daily administered with 20 μl peptide-containing solution that contains 2.5 mmol/kg of the present peptide for 7 days. Moreover, the mice in the control group were daily administrated with 20 μl PBS solution for 7 days.
(§3) After the daily administration, the tissues of column, muscle, fat pad, liver and kidney were collected for analyzing the expression of multiple targets by system biology analysis. Herein, the altered expressions of the targets in the genome were determined by using DNA microarray which is a well-established tool for systematic biology analysis. Furthermore, the results of the DNA microarray were further categorized and analyzed by bioinformatics analysis to determine the effect and affected signaling pathways of the present polypeptide. Therefore, it can determine the downstream targets of the present polypeptide comprising the amino acid sequence of SEQ ID No. 1 by the mechanism investigation through microarray analysis and gene expression profile. The detail steps including:
(§4) (1) RNA preparation: The total RNA was extracted from the tissue by using RNeasy Mini Kit (Qiagen, Valencia, Calif., USA). The amount of the extracted total RNA was measured by Beckman DU800 spectrophotometer (Beckman Coulter, Fullerton, Calif., USA). In the next step, the quality of the RNA sample with A260/A280 ratio more than 1.8 was further evaluated by Agilent 2100 bioanalyzer (Agilent Technologies, Santa Clara, Calif., USA). When with the RNA integrity number of the sample is more than 8.0, it would be analyzed by the following microarray analysis.
(§5) (2) DNA microarray analysis: The procedure of DNA microarray analysis was conducted according to the reference (Cheng, 2007). Briefly, 5 μg of total RNA was amplified by in vitro transcription using MessageAmp™ aRNA kit (Ambion). In the following, the fluorescence dye, Cy5, was chemically labeled on the amplified RNA (aRNA). After the labeling, the fluorescence labeled aRNA was hybridized with Whole Genome OneArray™ in hybridization buffer (Phalanx Biotech Group, Taiwan) on cover slide. Following the hybridization reaction at 50° C. over-night, the non-specific binding on the chip was washed by three washing steps. The washed chip was dried by centrifugation and was scanned by Axon 4000 scanner (Molecular Devices, Sunnyvale, Calif., USA) to measure the fluorescence signals. The fluorescence intensity of Cy5 on each spots was further analyzed by genepix 4.1 (Molecular Devices). First, the signals of each spot were adjusted by deducting the intensity of background. In the next step, the spots including the probes of internal controls or the spots with the signal-to-noise ratios less than […] would be removed. The qualified spots were normalized by limma package which is belonged to R console (Smyth, 2005).
(§6) (3). Analysis of the functional mechanism and affected signaling pathways by using bioinformatics software: The altered downstream targets, functional mechanisms, affected signaling pathways and the disease relevance were investigated by using the bioinformatics software such as Medical Subject Headings (MeSH, http://www.nlm.nih.gov/mesh/meshhome.html) and BiblioSphere Pathway Edition.

[5] = tested on: Liver (Fatty liver genes); settings: Down-regulated, 2.5 mmol/kg daily, 7 days
Procedure: as §2, §3, §4, §5, §6

[6] = Muscle histology (H&E) in genetic deficient mice; format: in vivo; settings: 2.5 nmol/kg peritoneal twice a week, 4 weeks; vs control mice
From the text: Collecting the muscles from the mice of the both groups stated in example 5. The collected muscles were for histological examination. In the histology examination, the cell number and cellular size of the muscular tissue were examined by H&E staining and microscopy observation.

[7] = Serological and biochemical analysis in NOD mice; format: in vivo; settings: 20 weeks; for Creatinine in serum: control 0.70 ± 0.05; for BUN: control 40.50 ± 4.54
Procedure: 23 mice were divided into four groups with different administrations for 20 weeks, wherein 6 mice of the group 1 were control mice that were daily orally administrated with 20 μl of PBS. 6 mice of the group 2 were daily orally administrated with 20 μl of 0.01 umol/kg solution that contained the present polypeptide comprising the amino acid sequence of SEQ ID No. 1. 6 mice of the group 3 were daily orally administered with 20 μl of 0.1 umol/kg solution that contained the present polypeptide comprising the amino acid sequence of SEQ ID No. 1. 5 mice of the group 4 were daily orally administrated with 20 μl of 1 umol/kg solution that contained the present polypeptide comprising the amino acid sequence of SEQ ID No. 1.
During the administration period, the survival rate, incidence of diabetes and diabetes-induced retinopathy in the each group were measured and shown in table 5. After the administration, the blood samples were collected for serological and biochemical analysis.

[8] = Group 2: 0.01 umol/kg daily oral
[9] = Group 3: 0.1 umol/kg daily oral

Chain of IL-1β (P10749 118-269): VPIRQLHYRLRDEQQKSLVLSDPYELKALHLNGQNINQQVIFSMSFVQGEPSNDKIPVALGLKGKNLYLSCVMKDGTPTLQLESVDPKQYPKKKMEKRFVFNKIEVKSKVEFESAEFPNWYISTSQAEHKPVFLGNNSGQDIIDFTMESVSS

B1: present polypeptide: polypeptide comprising the amino acid sequence of SEQ ID No. 1; made by peptide synthesis, recombinant expression or extraction from Momordica charantia (peptide, listed as Artificial synthsis)
chain: SRCQGKSSWPQLVGSTGAAAKAWIERENPRVRAVIIKVGSGATKDFRCDRVRVWVTERGIVARPPTIG
[1]
  Fold, Acox1: Up-regulated 2.0 folds
  Fold, Acsl4: Up-regulated 5.1 folds
  Fold, Cpt1a: Up-regulated 3.1 folds
  Fold, Cpt2: Up-regulated 1.5 folds
  Fold, Hsd17b4: Up-regulated 1.7 folds
  Fold, Sirt1: Up-regulated 3.0 folds
[2]
  brown zone (active TNF-α signal) in tissue, IHC: obviously less than the group 2
[3]
  brown zone (active IL-1β signal) in tissue, IHC: obviously less than the group 2
[4]
  Fold, Apoc3: 2.5 folds
  Fold, Ctla4: 1.65 folds
  Fold, Fabp2: 1.62 folds
  Fold, Fgb: 1.91 folds
  Fold, Hp: 2.35 folds
[5]
  Fold, Aldh2: 2.5 folds
  Fold, Ctla4: 1.56 folds
  Fold, Cyp17a1: 1.52 folds
  Fold, Mmp2: 2.11 folds
  Fold, Mttp: 3.53 folds
  Fold, Sod2: 1.71 folds
[6]
  muscular dystrophy (H&E histology of muscle): improved the muscular dystrophy
[7]; [8]
  Creatinine in serum: 0.64 ± 0.12 mg/dL
  BUN: 37.38 ± 2.77 mg/dL
[7]; [9]
  Creatinine in serum: 0.69 ± 0.06 mg/dL
  BUN: 38.50 ± 4.69 mg/dL
[7]; Group 4: 1 umol/kg daily oral
  Creatinine in serum: 0.69 ± 0.06 mg/dL
  BUN: 35.88 ± 6.33 mg/dL

— patent US11723946B2, “Methods for regulating transcription of multiple genes and expression of multiple targets” (CHINA MEDICAL UNIVERSITY, priority 2014, dated 2023)
